Assay [1] deals with T1, TssJ N-terminal thioredoxine fusion (enteroaggregative Escherichia coli …).
T1 construct: TssJ of enteroaggregative Escherichia coli strain 17-2; residues 2-155 of the processed lipoprotein = residues 25-178 of the full-length protein; pETG-20A construct: hexahistidine tagged thioredoxin, TEV site, TssJ; used uncleaved on the CM5 chip; also called Trx-TssJ; source: E. coli T7 Iq pLysS, purified; not shown: thioredoxin, N-terminal, kept; His6, N-terminal, kept
Description: SPR; Biacore X100; Trx-TssJ covalently coupled to a CM5 chip (600 RU), TssM construct injected (Trx-TssM-ekto at 10-0.312 µM); 10 mM Tris pH 8, 150 mM NaCl, 0.005% Tween; Kd from equilibrium levels, 1:1 model. The conditions noted are these: both partners purified.

The target of assay [2] is T2, TssJ (enteroaggregative E. coli Sci1 T6SS), residues 2-155 of the processed lipoprotein, fusion and tag … (enteroaggregative Escherichia coli …).
T2 construct: TssJ outer membrane lipoprotein of the sci1 cluster, enteroaggregative Escherichia coli strain 17-2; residues 2-155 of the processed lipoprotein = residues 25-178 of the full-length protein; a Gly left at position 1 may stem from the TEV site (surmised); also called native TssJ; SciN; not shown: thioredoxin, N-terminal, cleaved; His6, N-terminal, cleaved
In words: SPR; Biacore X100; Trx-TssM-ekto covalently coupled to a CM5 chip (3000 RU), TssJ injected (40-0.312 µM); 10 mM Tris pH 8, 150 mM NaCl, 0.005% Tween; Kd from equilibrium levels, 1:1 model. The note with it: both partners purified. On the technique in general: Surface plasmon resonance follows binding to a sensor surface in real time, without labels.

B1: TssM-ekto N-terminal thioredoxine fusion (domain or fragment)
chain: DYGSLTAAGLGQEWYGFGQTVFVRPMEQAWQQVLTPAAESLNARWRTAVVDGWNNAFSGRYPFKNVSSDASLPLLAKYLNTDTGRIARFLQNNLSGVLHREGSRWVPDTINTRGLTFNPAFLKAINTLSEIADVAFTTGNAGLHFELRPGTAAGVMQTTLITDNQKLIYVNQMPVWKRFTWPADTEAPGASLSWVSTQAGTRQYADLPGSWGLIRLLEMARRKAAPGVASGWSLSWQAQDGRMLNYTLRTEAGEGPLVLLKLRNFVLPETVFELSGTSAFTGNDEDAGDTVEETD
With B1, the Kd in assay [1] came to 2.1 µM; in assay [2] it was 4 ± 0.5 µM.

Broadly, the Kd is the free concentration of one partner at which half of the binding sites on the other are occupied at equilibrium, for simple one-to-one binding. A lower Kd goes with tighter binding.
